# Source: patent US10323078B2, “Isolated peptides and fragments thereof from fibrinogen for use as drugs, particularly in skin inflammatory diseases” (Universite Paris Descartes, priority 2015, dated 2019)
# B1: MKRMVSWSFHKLKTMKHLLLLLLCVFLVKSQGVNDNEEGFFSARGHRPLDKKREEAPSLRPAPPPISGGGYRARPAKAAATQKKVERKAPDAGGCLHADPDLGVLC (protein)
# chain: MKRMVSWSFHKLKTMKHLLLLLLCVFLVKSQGVNDNEEGFFSARGHRPLDKKREEAPSLRPAPPPISGGGRARPAKAAATQKKVERKAPDAGGCLHADPDLGVLCMKRMVSWSFHKLKTMKHLLLLLLCVFLVKSQGVNDNEEGFFSARGHRPLDKKREEAPSLRPAPPPISGGGYRARPAKAAATQKKVERKAPDAGGCLHADPDLGVLC
# modifications: GST fusion; fragment Fg1
# notes: fragment of Bß chain of human fibrinogen having 106 amino acids; recombinant GST-fused peptide expressed in E. coli
# How the values were obtained:
# [1] = test system: P. acnes RON strain; experiment: Adhesion assay, biotinylated P. acnes binding to monocytes (ThP1); format: cell-based, Propionibacterium acnes; settings: monocytes (THP-1); bacteria pretreated 0.87 to 7 μM, 1 h at 37° C.
# Experimental: FIG. 13: Dose-dependent inhibition of P. acnes RON binding to monocytes cell line. Biotinylated P. acnes RON strain at concentrations adjusted to 0.1 of absorbance at 600 nm was pre-treated with the recombinant peptides Fg1 and Fg2 and incubated 1 h at 37° C. with the human immortalized monocytes cell line ThP1. After removal of unbound bacteria, adhesion activity was detected at 410 nm. Data are means±S.D. of three separate experiments. Statistical significance is indicated by * (P<0.05), ** (P<0.01), *** (P<0.001), and **** (P<0.0001), respectively.
# The bacterial suspension was adjusted at 600 nm to the desired concentration, pretreated with peptides Fg1 and Fg2 at the final concentration ranging from 0.87 to 7 μM for 1 h at 37° C. and deposited on the previously saturated cells with a solution of PBS SVF 2% for 2 h. After incubation for 1 h at 37° C., unbound bacteria are removed by 3 washes with PBS and fixed bacteria are detected by a streptavidin-peroxidase solution of 0.5 μg/ml for 30 min.
# Whole P. acnes bacteria are labelled by biotinylation, pre-treated or not with the peptides and contacted with the various cell lines. After removal of the unfixed bacteria, the adhesion activity was measured spectrophotometrically by using the streptavidin-peroxidase conjugate and a chromogenic substrate. […]
# [2] = test system: ThP1 cells; experiment: O2°− production by P. acnes-stimulated ThP1; format: cell-based, human; settings: 0.87 to 7 μM
# Experimental: (§1) For experiences of stimulation with P. acnes, cells were incubated with the P. acnes suspension adjusted at the appropriate concentration, pre-treated for 1 h at 37° C. or not with fibrinogen recombinant peptides Fg1 and Fg2 at the concentrations 0.87, 1.75, 3.5 or 7 μM for the desired period of time at 37° C. in 5% CO2.
# All cells lines (5·10^4 to 10^5 cells/well) were seeded in 96-well plates (Corning Costar, Brumath, France) and treated as previously described. After stimulation, cells were washed three times in PBS and incubated with 100 μl per wells of 5 μM DHE (for determination of O2^●−) or 5 μM H2-DCFDA (for determination of H2O2) for 30 min as described previously and fluorescence intensity was recorded every hour over a period of 5 h. Fluorescence excitation/emission maxima were for DHE: 480/610 nm and for H2-DCFDA: 507/525 nm. At the end of the experiment, the number of adherent cells was evaluated by the crystal violet assay as described below. O2^●−, and H2O2 were assayed by spectrofluorimetry on a Fusion spectrofluorimeter (PackardBell, Paris, France). Levels of ROS were calculated in each sample as follows: reactive oxygen species rate (arbitrary units/min/10^6 cells)=(fluorescence intensity [arbitrary units] at T5h—fluorescence intensity [arbitrary units] at To/300 minutes/number of adherent cells as measured by the crystal violet assay, and were expressed as arbitrary unit (A.U.).
# (§2) To assess the efficacy of Fg1 recombinant peptide, the production of O2^∘− and H2O2 by HaCaT cells NHDK, THP-1, MRC5 and HDF stimulated by pretreated P. acnes strains 6919, RON and PIE was measured. The amount of ROS produced was compared to that produced by the stimulated cells with untreated bacteria. Production baseline was obtained by measuring ROS on unstimulated cells. The production of IL-1ß, IL-8, IL-12 and TNF-α was also measured in all conditions cited above. The measurement of the production of ROS is performed by spectrofluorimetry in the presence of specific fluorochromes directly on the monolayer cell. Measurement of cytokine production was performed in parallel on the cell culture supernatant.
# (§3) Two sets of experiments were implemented: 1) The cells were stimulated (18 h at 37° C.) by P. acnes strains previously pretreated with Fg1 and Fg2 peptides at the final concentrations ranging from 0.87 to 7 μM for 1 h at 37° C.; and 2) The cells were pretreated first with Fg1 and Fg2 peptides at the final concentrations ranging from 0.87 to 7 μM for 24 h at 37° C. and stimulated (18 h at 37° C.) by P. acnes strains.
# [3] = test system: NHDK cells; experiment: IL-8 production by P. acnes-stimulated NHDK (ELISA); format: cell-based, human; settings: 0.87 to 7 μM
# Experimental: as §1
# (§4) Human IL-1ß, IL-8, IL-12, hBD-2, and TNF-α protein concentration was measured in the supernatants of stimulated cells using various ELISA Set kits (Ready-Set-Go kit from eBioscience for acne experiments, and for psoriasis experiments the Duo set IL-8 kit from R&D Systems and the BD-2 Human Development (hBD-2) from Peprotech) according to the manufacturer's instructions. We used serial dilutions of recombinant human IL-1ß, IL-8, IL-12 and TNF-α for standard curve. The optical density was determined at 450 nm at a wavelength correction of 540 nm.
# as §2, §3
# [4] = test system: NHDK cells; experiment: IL-12 production by P. acnes-stimulated NHDK (ELISA); format: cell-based, human; settings: P. acnes RON, set I, bacteria first pretreated, 0.87 to 7 μM
# Experimental: as §1, §4
# as §2, with “The measurement of the production of ROS is performed by spectrofluorimetry in the presence of specific fluorochromes directly on the monolayer cell. Measurement of cytokine production was performed in parallel on the cell culture supernatant.” left out
# [5] = test system: keratinocytes and fibroblasts; experiment: IL-8 production by cells stimulated with P. acnes, overall statement; format: cell-based, human; settings: the 3 bacterial tested strains
# Experimental: as §1, §4
# as §2, with “The measurement of the production of ROS is performed by spectrofluorimetry in the presence of specific fluorochromes directly on the monolayer cell. Measurement of cytokine production was performed in parallel on the cell culture supernatant.” left out
# [6] = P. acnes 6919, set I, bacteria first pretreated
# [7] = P. acnes 6919, set II, cells first pretreated
# [8] = P. acnes PIE, set I, bacteria first pretreated
# [9] = P. acnes PIE, set II, cells first pretreated
# [10] = P. acnes RON, set I, bacteria first pretreated
# [11] = P. acnes RON, set II, cells first pretreated
molecule,measurement,setting,value
B1,Inhibition of adhesion of P. acnes RON strain,[1],inhibits the adhesion of RON strain in a dose-dependent manner
same,Inhibition of Superoxide anion (O2°−) production,[2]; [6],pos
same,Inhibition of Superoxide anion (O2°−) production,[2]; [7],pos
same,Inhibition of Superoxide anion (O2°−) production,[2]; [8],pos
same,Inhibition of Superoxide anion (O2°−) production,[2]; [9],pos
same,Inhibition of Superoxide anion (O2°−) production,[2]; [10],pos
same,Inhibition of Superoxide anion (O2°−) production,[2]; [11],pos
same,Inhibition of Interleukine 8 (IL-8) production,[3]; [6],pos
same,Inhibition of Interleukine 8 (IL-8) production,[3]; [7],pos
same,Inhibition of Interleukine 8 (IL-8) production,[3]; [8],pos
same,Inhibition of Interleukine 8 (IL-8) production,[3]; [9],pos
same,Inhibition of Interleukine 8 (IL-8) production,[3]; [10],pos
same,Inhibition of Interleukine 8 (IL-8) production,[3]; [11],pos
same,Inhibition of Interleukine 12 (IL-12) production,[4],pos
same,Decrease of the production of IL-8,[5],dose-response effect on the decrease of the production of IL-8
